Source: patent US6020166, “Nucleic acid encoding an altered telomere repeat binding factor 2” (The Rockfeller University)

T1: TRF1 purified from HeLa (Homo sapiens, UniProt P54274 SEQ:1-439)
T1 chain: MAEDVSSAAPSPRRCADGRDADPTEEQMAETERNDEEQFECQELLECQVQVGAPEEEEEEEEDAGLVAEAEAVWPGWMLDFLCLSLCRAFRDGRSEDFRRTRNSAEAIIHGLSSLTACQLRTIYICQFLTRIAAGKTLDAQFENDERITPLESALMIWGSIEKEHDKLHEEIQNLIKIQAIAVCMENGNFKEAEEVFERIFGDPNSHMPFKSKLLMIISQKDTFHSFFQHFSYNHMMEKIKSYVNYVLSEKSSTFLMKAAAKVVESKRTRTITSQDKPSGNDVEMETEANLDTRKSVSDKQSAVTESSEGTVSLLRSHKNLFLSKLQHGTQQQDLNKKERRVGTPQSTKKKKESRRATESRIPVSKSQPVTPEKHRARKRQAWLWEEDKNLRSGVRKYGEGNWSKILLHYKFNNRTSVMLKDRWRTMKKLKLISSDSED

T2: TRF1 full length (Homo sapiens, UniProt P54274 SEQ:1-439)
T2 chain: T1 chain

T3: TRF1 derivative II (Homo sapiens, UniProt P54274 SEQ:1-439)
T3 chain: T1 chain

T4: GFP-TRF1 (Homo sapiens, UniProt P54274 SEQ:1-439)
T4 chain: T1 chain

T5: TRF1 delta263-376 (Homo sapiens, internal deletion 263-376)
T5 chain: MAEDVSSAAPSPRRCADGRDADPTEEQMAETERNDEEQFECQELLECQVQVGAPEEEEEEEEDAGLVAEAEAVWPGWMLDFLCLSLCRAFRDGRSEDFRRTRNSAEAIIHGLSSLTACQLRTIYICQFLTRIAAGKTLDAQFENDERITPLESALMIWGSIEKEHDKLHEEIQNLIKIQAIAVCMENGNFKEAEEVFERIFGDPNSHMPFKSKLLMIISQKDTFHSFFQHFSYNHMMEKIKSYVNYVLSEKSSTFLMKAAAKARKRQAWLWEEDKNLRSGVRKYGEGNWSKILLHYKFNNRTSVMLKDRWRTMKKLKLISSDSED

B1: [TTAGGG]6 permuted probes (dsDNA)
DNA 1: TTAGGGTTAGGGTTAGGGTTAGGGTTAGGGTTAGGG
DNA 2: CCCTAACCCTAACCCTAACCCTAACCCTAACCCTAA
B2: [TTAGGG]12 probe (142 bp pTH12 fragment) (dsDNA)
DNA 1: TTAGGGTTAGGGTTAGGGTTAGGGTTAGGGTTAGGGTTAGGGTTAGGGTTAGGGTTAGGGTTAGGGTTAGGG
DNA 2: CCCTAACCCTAACCCTAACCCTAACCCTAACCCTAACCCTAACCCTAACCCTAACCCTAACCCTAACCCTAA

What was measured:
TRF1 purified from HeLa [1] = molecular target: T1, TRF1 purified from HeLa; assay: EMSA; bend 64-66 degrees; competed by TTAGGG plasmid; details: chain copies: 2 stated; label: 32P
Experimental: (§1) DNA bending assay: PCR primers were used to generate DNA fragments with the composition indicated in FIG. 9 using pTH3, pTH6, and pTH12 [Zhong et al., 1992, supra] as templates, which contain 3, 6, and 12 tandem TTAGGG repeats, respectively. The products were end-labelled with ^32P-γ-ATP and polynucleotide kinase and the labelled fragments were isolated by preparative acrylamide gel-electrophoresis. Gel-shift reactions with partially purified HeLa TRF1 were performed as described above and the migration of the complexes was analyzed as described by Ferrari et al. [Ferrari et al., 1992, supra], and Thompson and Landy [*Nucl. Acids Res.*, 16:9687–9705 (1988)].
(§2) Labeled DNA probes were incubated with purified HeLa TRF1 under conditions in which one TRF1 dimer binds per probe molecule [Zhong et al., 1992, supra] and the mobility of the resulting complexes was analyzed on native polyacrylamide gels. The permuted sets of fragments had the same electrophoretic mobility as expected from their equal lengths. […] As shown in FIG. 9B for the 6mer and 12mer probes, an effect of the position of the hTRF1 binding site within the probes was observed. Slower migrating complexes were obtained when the binding site for hTRF1 was located more centrally in the DNA molecule, consistent with the induction of DNA bending upon hTRF1 binding.

TRF1 full length = molecular target: T2, TRF1 full length; assay: EMSA; details: label: 32P
From the text: (§3) Coupled in vitro transcription/translation: TRF1 deletion mutants used for the in vitro coupled transcription/translation experiments were cloned in the vector pET28(a) (Promega) in the NcoI and EcoRI sites using PCR-generated fragments. The GFP-TRF1 fusion product was cloned in pBluescriptKS+. PCR-directed mutagenesis was used to eliminate from this construct the start codon of the TRF1 gene by mutating it from ATG to ATT in order to suppress the occurrence of internal translation at this position. The GFP sequence was obtained from pS65T-C I (Clontech). Expression of TRF1 derivatives was achieved by using a rabbit reticulocyte lysate system (Promega) using reaction conditions essentially as described by the supplier. Briefly, between 0.2 to 1 µg of total plasmid DNA was used per 20 µl reaction containing T7 RNA polymerase in the presence of ^35S-methionine (to visualize products on SDS-PAGE) or without labeled amino acids (for gel-shift assays). After the transcription/translation reaction samples were diluted 1:5 with the addition of 80 µl of buffer D [Chong et al., 1995, supra]. Of this mixture, 0.5–5 µl was used in gel-shift reactions.
(§4) Gel-shift assays: Gel-shift assays were performed as described previously [Zhong et al., 1992, supra] using labeled restriction fragments as probes. […]

TRF1 purified from HeLa [2] = molecular target: T1, TRF1 purified from HeLa; assay: EMSA; bend 57 and 59 degrees; competed by TTAGGG plasmid; details: chain copies: 2 stated; label: 32P
Experimental: as §1, §2

TRF1 deltaN-46 = TRF1 deltaN-46 (Homo sapiens, UniProt P54274 SEQ:1-439, deletion of first 46 aa); assay: EMSA; activity unaffected; details: label: 32P
From the text: as §3, §4

TRF1 deltaN-28 = TRF1 deltaN-28 (Homo sapiens, UniProt P54274 SEQ:1-439, deletion of first 28 aa); assay: EMSA; activity unaffected; details: label: 32P
From the text: as §3, §4

TRF1 deltaN-376 = TRF1 deltaN-376 (Homo sapiens, UniProt P54274 SEQ:1-439, deletion of N-terminus to 376); assay: EMSA; Myb domain without dimerization domain; details: label: 32P
From the text: as §3, §4

TRF1 deltaN-196 = TRF1 deltaN-196 (Homo sapiens, UniProt P54274 SEQ:1-439, deletion of N-terminus to 196); assay: EMSA; lacks dimerization domain; details: label: 32P
From the text: as §3, §4

TRF1 derivative II = molecular target: T3, TRF1 derivative II; assay: EMSA; binds as homodimer; details: tags: N-terminal 43 aa polylinker-encoded addition; chain copies: 2 stated; label: 32P
From the text: as §3, §4

GFP-TRF1 = molecular target: T4, GFP-TRF1; assay: EMSA; binds as homodimer; details: tags: N-terminal GFP; TRF1 start codon ATG to ATT; chain copies: 2 stated; label: 32P
From the text: as §3, §4

TRF1 delta263-376 = molecular target: T5, TRF1 delta263-376; assay: EMSA; dimerization domain fused to Myb; details: label: 32P
From the text: as §3, §4

| Binder | binding result (TRF1 purified from HeLa [1]) | binding result (TRF1 full length) | binding result (TRF1 purified from HeLa [2]) | binding result (TRF1 deltaN-46) | binding result (TRF1 deltaN-28) | binding result (TRF1 deltaN-376) | binding result (TRF1 deltaN-196) | binding result (TRF1 derivative II) | binding result (GFP-TRF1) | binding result (TRF1 delta263-376) |
| --- | --- | --- | --- | --- | --- | --- | --- | --- | --- | --- |
| B1 | binds |  |  |  |  |  |  |  |  |  |
| B2 |  | binds | binds | binds | binds | no binding | no binding | binds | binds | no binding |
